Reference: US20190211097A1
Values belong to the substance of their own block, whether it stands above or below them.

Molecular target: human CD32a (FcgammaRIIa) on washed human platelets (human) (UniProt P12318)
Assay: cell-based or functional assay

Chain of human CD32a (FcgammaRIIa) on washed human platelets (human) (P12318 34-317 limits assumed): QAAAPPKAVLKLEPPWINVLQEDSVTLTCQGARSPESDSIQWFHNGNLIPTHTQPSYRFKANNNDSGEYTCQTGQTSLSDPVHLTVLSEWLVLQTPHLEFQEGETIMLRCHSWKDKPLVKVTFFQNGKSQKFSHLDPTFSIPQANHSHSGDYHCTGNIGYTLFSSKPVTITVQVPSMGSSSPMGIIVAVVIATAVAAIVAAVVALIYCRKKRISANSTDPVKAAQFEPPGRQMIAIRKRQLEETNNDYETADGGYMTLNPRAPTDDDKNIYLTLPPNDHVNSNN
Chain of M90 anti-CD40L mAb + CD40L immune complex (P29965 113-261, one chain of several): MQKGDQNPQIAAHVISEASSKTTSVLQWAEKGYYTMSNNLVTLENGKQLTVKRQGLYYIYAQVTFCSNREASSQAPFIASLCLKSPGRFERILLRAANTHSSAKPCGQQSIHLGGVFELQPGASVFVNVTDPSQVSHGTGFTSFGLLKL
Chain of M90 anti-CD40L mAb + M91 anti-CD40L mAb + CD40L immune complex (a polyclonal immune complex) (P29965 113-261, one chain of several): as above

mAb concentration needed to block 500 nM M90+CD40L IC-induced platelet aggregation: < 5 nM
Substance: native chimeric IV.3 human IgG1 mAb (antibody)

mAb concentration that blocked 250 nM M90+CD40L IC-induced platelet aggregation: 7 nM
Substance: deglycosylated native mouse IV.3 IgG2b mAb (antibody)

More lines, now with the values behind:

Substance: M90 anti-CD40L mAb + CD40L immune complex (from UniProt P29965 113-261)
washed human platelet aggregation induced by the IC (IC concentration): 250 nM

Substance: effector-deficient humanized IV.3.1 IgG1 E269R mAb (antibody)
mAb concentration that blocked 250 nM HIT-like IC-induced platelet aggregation: 40 nM | mAb concentration that blocked 500 nM M90+CD40L IC-induced platelet aggregation: 6 nM | mAb concentration that blocked 1000 nM M90+M91+CD40L IC-induced platelet aggregation: 25 nM | mAb concentration that blocked APS-like IC-induced platelet aggregation: 33 nM | mAb concentration that did not inhibit 500 nM M90+CD40L IC-induced platelet aggregation: 2 nM | mAb concentration that inhibited 500 nM M90+CD40L IC-induced platelet aggregation: 3 nM | platelet activation by the combination of hIV.3.1 (25 nM), hAT-10 (90 nM) and MDE-8 (75 nM), all IgG1 E269R: 25 nM | platelet aggregation by the combination of hAT-10 (2 nM), hIV.3.1 (150 nM) and MDE-8 (150 nM), all IgG1 E269R: 150 nM

Substance: M90 anti-CD40L mAb + M91 anti-CD40L mAb + CD40L immune complex (a polyclonal immune complex) (from UniProt P29965 113-261)
washed human platelet aggregation induced by the IC (IC concentration): 1000 nM
